Laboratory results reported in US20230134580A1 (SHANGHAI HENLIUS BIOTECH, published 2023).
Read-outs that look alike come from different tables or passages of the source.

How the values were obtained:
[1] = target: T1, human TIGIT (T cell immunoreceptor with Ig and ITIM domains), expressed on cells (human, UniProt Q495A1 22-244); test: cell-based or functional assay
T1 sequence: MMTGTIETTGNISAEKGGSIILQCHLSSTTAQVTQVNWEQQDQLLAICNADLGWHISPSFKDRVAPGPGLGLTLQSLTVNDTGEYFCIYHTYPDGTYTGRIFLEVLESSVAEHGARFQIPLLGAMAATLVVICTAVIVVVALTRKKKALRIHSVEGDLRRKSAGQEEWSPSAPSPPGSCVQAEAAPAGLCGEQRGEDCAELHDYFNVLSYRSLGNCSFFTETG

[2] = target: T1, human TIGIT (T cell immunoreceptor with …); test: cell-based or functional assay; remark: listed apart in the source
[3] = target: T1, human TIGIT (T cell immunoreceptor with …); test: cell-based or functional assay; remark: listed apart in the source
[4] = target: T1, human TIGIT (T cell immunoreceptor with …); test: whole cell binding assays, n=3 (FIG. 10A)
Procedure: Jurkat cells stably expressing human TIGIT and NFAT reporter gene were established. Specifically, Jurkat cells were transfected with human TIGIT expression vector by electroporation, and cells stably expressing human TIGIT were selected by 1 μg/ml puromycin during cell culture. Representative antibody clones were incubated at different concentrations with h-TIGIT stably expressing Jurkat cells (0.2×10^6/ml) in 100 μl/well in 96-well plate in FACS buffer (PBS with 1.5% FBS) for 30 min. After washing, Alexaflour 488 conjugated anti-human IgG Fc secondary antibody (Alexa Fluor® 488 AffiniPure Goat Anti-Human IgG, Fcγ fragment specific, Jackson labs, 1:500 dilution) was added and incubated for 30 min. After washing, mean fluorescence intensity was measured using CytoFlex (Beckman Coulter) by gating live cell population. Binding affinity was calculated using GraphPad Prism.

EC50, NFAT luciferase reporter assay (n=3) [1]: 480 pM
EC50 (read off the curve), NFAT luciferase reporter, TIGIT blockade [2]: ~1000 pM
EC50 (read off the curve), NFAT luciferase reporter, TIGIT blockade [3]: ~700 pM
EC50 [4]: 320 pM
B1: Bivalent 2A3 antibody (2A3-Fc) (Fc fusion)
chain: QVQLVESGGGVVQPGRSLRLSCAASGGSFSSYPMGWFRQAPGKERESVAAISSDMRFTYYADSVKGRFTISRDNSKNTLYLQMNSLRAEDTAVYYCAARDSGVGYYSRAQWYDYWGQGTLVTVSS
notes: ExpiCHO, protein A purified; also called 2A3 clone; parental 2A3-Fc; not shown: human IgG1 CH2 and CH3 domains
